{
  "source": "paper PMC8568338",
  "about": "(Cell reports, 2021)",
  "target": "the molecule itself",
  "test": "native gel or EMSA",
  "data": [
    {"protein": "Strep-tagged VP40[change] (VP40 truncated after residue 194) (domain or fragment) MRRVILPTAPPEYMEAIYPVRSNSTIARGGNSNTGFLTPESVNGDTPSNPLRPIADDTIDHASHTPGSVSSAFILEAMVNVISGPKVLMKQIPIWLPLGVADQKTYSFDSTTAAIMLASYTITHFGKATNPLVRVNRLGPGIPDHPLRLLRIGNQAFLQEFVLPPVQLPQYFTFDLTALKLITQPLPAATWTDD", "values": [
      {"measurement": "stoichiometry N", "value": 8}
    ]}
  ]
}
